Source: patent US20190160028A1

Target: Nluc-NS2B (49-66) (named as Nluc-E66stop) (firefly; Dengue virus serotype 2 (DENV2)) [luciferase: P08659]
Sequence (P08659 whole entry): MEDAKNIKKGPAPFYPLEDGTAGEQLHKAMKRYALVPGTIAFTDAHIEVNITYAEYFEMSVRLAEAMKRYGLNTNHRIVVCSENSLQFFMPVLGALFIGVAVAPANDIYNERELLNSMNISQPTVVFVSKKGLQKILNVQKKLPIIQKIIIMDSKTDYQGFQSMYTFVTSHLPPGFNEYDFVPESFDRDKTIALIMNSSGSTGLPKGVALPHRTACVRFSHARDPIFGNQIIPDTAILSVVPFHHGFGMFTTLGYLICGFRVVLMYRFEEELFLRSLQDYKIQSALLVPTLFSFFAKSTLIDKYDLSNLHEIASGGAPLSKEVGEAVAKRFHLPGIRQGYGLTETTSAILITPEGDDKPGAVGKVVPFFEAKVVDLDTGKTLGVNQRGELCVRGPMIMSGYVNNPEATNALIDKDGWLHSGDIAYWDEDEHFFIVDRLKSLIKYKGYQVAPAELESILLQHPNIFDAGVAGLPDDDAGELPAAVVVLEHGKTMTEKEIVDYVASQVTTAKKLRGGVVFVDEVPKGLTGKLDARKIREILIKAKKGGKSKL

His-tagged maltose-binding protein (MBP) fused to DENV2 NS3 protein (His-MBP-NS3) (from UniProt P14337 1476-1654) (enzyme)
affinity: 2.5 µM
